Reference: US8541175B2, “Detection of molecular interactions using a reduced affinity enzyme complementation reporter system” (The Board of Trustees of the Leland Stanford Junior …, priority 2006, dated 2013)

Key:
Type in all cases: cell-based
[1] = target: EGFR and ErbB2 (Homo sapiens, UniProt P04626); test: Low affinity β-gal complementation, EGFR-ErbB2 heterodimerization; conditions: for loss of β-gal activity (heterodimer dissociation) after removal of ligand: EGFRω-ErbB2α* cells, ligand added, then washout
Description: To perform a quantitative comparison of the different pairs of receptors, receptor expression level in cells was controlled, as the amount of β-gal fusion protein affects β-gal enzyme activity (FIG. 2). […] These cells were engineered to express either the ErbB2-ω or the EGFR-ω fusion proteins. Each of the ω-expressing parental cell lines were then split and transduced with each of three constructs encoding different α-fusion proteins, EGFR-α*, ErbB2-α*, and ErbB3-α*. Because the cells were generated from the same parental line, they expressed equivalent amounts of ω. To allow measurement of α* chimeric protein expression levels, YFP was included in each construct, between the ErbB receptor and the α*.

[2] = target: EGFR homodimers in the presence of excess ErbB2 (Homo sapiens, UniProt P04626); test: EGFR homodimerization in EGFRα*-EGFRω cell line overexpressing wild-type ErbB2; conditions: EGFRα*-EGFRω cells overexpressing wild-type ErbB2; increasing concentrations of EGF
Description: As a test of this hypothesis, the wildtype ErbB2 lacking a β-gal fragment was overexpressed in the EGFRα*-EGFRω cell line. […] This disruption allowed EGFRα* and EGFRω to interact and homodimerize.

[3] = target: T1, ErbB2 homodimers (Homo sapiens, UniProt P04626); test: Low affinity β-gal complementation, ErbB2ω-ErbB2α* homodimerization; conditions: ligand for 45 min; 20,000 cells per well
T1 construct: ErbB2 (aa 1-686); expressed in transfected cells; host or cells: C2C12 cells, retroviral transduction
Description: To perform a quantitative comparison of the different pairs of receptors, receptor expression level in cells was controlled, as the amount of β-gal fusion protein affects β-gal enzyme activity (FIG. 2). To this end, two parental cell lines were constructed using C2C12 cells in which ErbB family members are expressed at very low levels (S. Corti et al., Exp Cell Res 268, 36 (Aug. 1, 2001)). These cells were engineered to express either the ErbB2-ω or the EGFR-ω fusion proteins. Each of the ω-expressing parental cell lines were then split and transduced with each of three constructs encoding different α-fusion proteins, EGFR-α*, ErbB2-α*, and ErbB3-α*. Because the cells were generated from the same parental line, they expressed equivalent amounts of ω. To allow measurement of α* chimeric protein expression levels, YFP was included in each construct, between the ErbB receptor and the α*. […] YFP was imaged by confocal microscopy to ensure that the receptor fusion proteins were appropriately localized to the plasma membrane, which is essential to their function (FIG. 3).
Cells were returned to a 37° C.
Isoproterenol, propranolol and rapamycin were from Sigma.

Substance	EGFRω-ErbB2α* heterodimer formation over time (enzyme activity) ([1]; 100 ng/ml EGF)	loss of β-gal activity (heterodimer dissociation) after removal of ligand [1]	ligand-induced heterodimerization of EGFR with ErbB2 (β-gal activity) ([1]; ligand for 45 min, 20,000 cells per well)	β-gal activity in response to EGF, no antibody [2]	response of ErbB2ω-ErbB2α* cells to ligand (β-gal activity) [3]
EGF: recombinant human EGF from Peprotech, ligand that binds the EGFR	time-dependent increase in enzyme activity	β-gal activity decreased over time	heterodimerization of EGFR with ErbB2	failed to stimulate β-gal activity	not responsive
TGF-α: recombinant human TGF-α from Peprotech, EGFR ligand	–	signal decayed more rapidly following TGF-α than after EGF exposure	–	–	–
